Experimental findings from patent EP1086956B1 are described below.

The target in the experiment is soluble human VEGF receptor Flt-1 3N (human) (UniProt P17948). In words: sandwich ELISA, KM1732 coated at 10 µg/ml, detection with biotin-labeled KM1730. In general terms: In an ELISA, binding on a coated surface is turned into a signal by an enzyme label.
Chain of UniProt P17948 (P17948 27-338 limits assumed): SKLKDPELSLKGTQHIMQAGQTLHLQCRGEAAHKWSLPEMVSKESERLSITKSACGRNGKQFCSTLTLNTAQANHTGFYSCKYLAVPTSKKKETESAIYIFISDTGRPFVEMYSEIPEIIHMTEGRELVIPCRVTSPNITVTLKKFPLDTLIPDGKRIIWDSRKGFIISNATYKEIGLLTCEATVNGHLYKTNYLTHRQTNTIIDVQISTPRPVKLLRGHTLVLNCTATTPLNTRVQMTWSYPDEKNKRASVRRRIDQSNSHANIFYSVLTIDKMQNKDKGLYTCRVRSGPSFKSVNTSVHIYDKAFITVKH

B1: anti-human VEGF receptor Flt-1 mouse monoclonal antibody KM1732 (antibody, from another filing, mouse IgG1, V domains shown)
VH: QGQMQQSGAELVKPGASVKLSCKPSGFTFSSNYISWLKQKPGQSLEWIAWIYAGTGDASYNQKFTAKAHVTVDTSSSTAYMQLSSLTTEDSAIYYCARHGGDGYWFAYWGQGTLVTVSA
VL: QLVLTQSPAIMSASQGEKVTMTCSASSSVSYMHWYQQKSGTSPKRWIYDTSKLPSGVPARFSGSGSGTSYSLTISSMEAEDAATYYCQQWSSNPPTFGAGTKLELK
For B1, the minimum measurable concentration stood at 0.46 ng/mL.
